# Experimental data as given in patent US20150087577A1 (POLYPHOR, published 2015).
# Bridges are numbered along the chain shown (N, C = ends). Primed or numbered codes have the meaning given here. [ ]: non-standard residue; d: D form. 2Nal = N[C@@H](Cc1ccc2ccccc2c1)C(=O)O; Cit = NC(=O)NCCC[C@H](N)C(=O)O; Dab = NCC[C@H](N)C(=O)O; Pip′ = not defined here
# Target: human CXCR4 (human, UniProt P61073 1-352)
# Assay: cell-based or functional assay
# human CXCR4, sequence (P61073 whole entry): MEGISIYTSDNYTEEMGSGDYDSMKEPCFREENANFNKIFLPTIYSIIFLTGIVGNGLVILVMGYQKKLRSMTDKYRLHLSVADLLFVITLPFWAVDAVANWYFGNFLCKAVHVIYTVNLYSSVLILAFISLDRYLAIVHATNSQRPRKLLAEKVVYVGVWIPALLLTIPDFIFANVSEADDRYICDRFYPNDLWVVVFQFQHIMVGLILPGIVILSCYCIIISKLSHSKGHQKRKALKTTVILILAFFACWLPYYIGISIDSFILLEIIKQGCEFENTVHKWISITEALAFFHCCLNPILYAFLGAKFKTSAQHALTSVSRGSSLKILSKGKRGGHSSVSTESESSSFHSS
Binder,IC50 (nM) Ca2+ assay (method 1) [nM],IC50 (nM) Ca2+ assay (method 2) [nM],IC50 (µM) Cell migration assay [µM]
cyclo(YR[Cit]FRVPRR[2Nal]FY[Cit]K[dP]P) (SMILES CC(C)[C@@H]1NC(=O)[C@H](CCCNC(=N)N)NC(=O)[C@H](Cc2ccccc2)NC(=O)[C@H](CCCNC(N)=O)NC(=O)[C@H](CCCNC(=N)N)NC(=O)[C@H](Cc2ccc(O)cc2)NC(=O)[C@@H]2CCCN2C(=O)[C@H]2CCCN2C(=O)[C@H](CCCCN)NC(=O)[C@H](CCCNC(N)=O)NC(=O)[C@H](Cc2ccc(O)cc2)NC(=O)[C@H](Cc2ccccc2)NC(=O)[C@H](Cc2ccc3ccccc3c2)NC(=O)[C@H](CCCNC(=N)N)NC(=O)[C@H](CCCNC(=N)N)NC(=O)[C@@H]2CCCN2C1=O) [Example 28],2680,–,–
RRWCYQKGYKGYGYRXCRGX (Cit at P16; disulfide Cys P4-Cys P17; backbone-cyclic via template Gly-DPro) [Example 156],–,49,–
"cyclo(RR[2Nal]CY[Cit]KCYKGYCYR[Cit]CRG[dP]) (disulfide 8-13, 4-17) [Example 154]",–,9.3,–
cyclo(YR[Cit]VRV[dP]RR[2Nal]FY[Cit]K[dP]P) (SMILES CC(C)[C@@H]1NC(=O)[C@H](CCCNC(N)=O)NC(=O)[C@H](CCCNC(=N)N)NC(=O)[C@H](Cc2ccc(O)cc2)NC(=O)[C@@H]2CCCN2C(=O)[C@H]2CCCN2C(=O)[C@H](CCCCN)NC(=O)[C@H](CCCNC(N)=O)NC(=O)[C@H](Cc2ccc(O)cc2)NC(=O)[C@H](Cc2ccccc2)NC(=O)[C@H](Cc2ccc3ccccc3c2)NC(=O)[C@H](CCCNC(=N)N)NC(=O)[C@H](CCCNC(=N)N)NC(=O)[C@H]2CCCN2C(=O)[C@H](C(C)C)NC(=O)[C@H](CCCNC(=N)N)NC1=O) [Example 32],760,–,–
"cyclo(RRWCYQKCYKGYCYR[Cit]CRG[dP]) (disulfide 8-13, 4-17) [Example 155]",–,0.46,–
cyclo(YR[Cit]CRGGRR[2Nal]CY[Cit]K[dP]P) (disulfide 4-11; SMILES N=C(N)NCCC[C@@H]1NC(=O)CNC(=O)CNC(=O)[C@H](CCCNC(=N)N)NC(=O)[C@@H]2CSSC[C@H](NC(=O)[C@H](Cc3ccc4ccccc4c3)NC(=O)[C@H](CCCNC(=N)N)NC1=O)C(=O)N[C@@H](Cc1ccc(O)cc1)C(=O)N[C@@H](CCCNC(N)=O)C(=O)N[C@@H](CCCCN)C(=O)N1CCC[C@@H]1C(=O)N1CCC[C@H]1C(=O)N[C@@H](Cc1ccc(O)cc1)C(=O)N[C@@H](CCCNC(=N)N)C(=O)N[C@@H](CCCNC(N)=O)C(=O)N2) [Example 52],3.1,–,2.75
cyclo(YR[Cit]SRG[dP]RRWNY[Cit]K[dP]P) (SMILES N=C(N)NCCC[C@@H]1NC(=O)[C@H](CO)NC(=O)[C@H](CCCNC(N)=O)NC(=O)[C@H](CCCNC(=N)N)NC(=O)[C@H](Cc2ccc(O)cc2)NC(=O)[C@@H]2CCCN2C(=O)[C@H]2CCCN2C(=O)[C@H](CCCCN)NC(=O)[C@H](CCCNC(N)=O)NC(=O)[C@H](Cc2ccc(O)cc2)NC(=O)[C@H](CC(N)=O)NC(=O)[C@H](Cc2c[nH]c3ccccc23)NC(=O)[C@H](CCCNC(=N)N)NC(=O)[C@H](CCCNC(=N)N)NC(=O)[C@H]2CCCN2C(=O)CNC1=O) [Example 151],–,4.2,–
cyclo(YR[Cit]VR[dR]R[2Nal]VY[Cit]K[dP]P) (SMILES CC(C)[C@@H]1NC(=O)[C@H](Cc2ccc3ccccc3c2)NC(=O)[C@H](CCCNC(=N)N)NC(=O)[C@@H](CCCNC(=N)N)NC(=O)[C@H](CCCNC(=N)N)NC(=O)[C@H](C(C)C)NC(=O)[C@H](CCCNC(N)=O)NC(=O)[C@H](CCCNC(=N)N)NC(=O)[C@H](Cc2ccc(O)cc2)NC(=O)[C@@H]2CCCN2C(=O)[C@H]2CCCN2C(=O)[C@H](CCCCN)NC(=O)[C@H](CCCNC(N)=O)NC(=O)[C@H](Cc2ccc(O)cc2)NC1=O) [Example 2],2830,–,–
RRYCYQKGYXPYGYRTCRGP (D-Pro at P10; disulfide Cys P4-Cys P17; backbone-cyclic via template Gly-LPro) [Example 159],–,118,–
RRWCYQKGYXGYGYRXCRGX (Cit at P16; disulfide Cys P4-Cys P17; backbone-cyclic via template Gly-DPro) [Example 157],–,11.3,–
cyclo(YR[Cit]CRG[dP]YR[2Nal]CYQK[dP]P) (disulfide 4-11; SMILES N=C(N)NCCC[C@@H]1NC(=O)[C@@H]2CSSC[C@H](NC(=O)[C@H](Cc3ccc4ccccc4c3)NC(=O)[C@H](CCCNC(=N)N)NC(=O)[C@H](Cc3ccc(O)cc3)NC(=O)[C@H]3CCCN3C(=O)CNC1=O)C(=O)N[C@@H](Cc1ccc(O)cc1)C(=O)N[C@@H](CCC(N)=O)C(=O)N[C@@H](CCCCN)C(=O)N1CCC[C@@H]1C(=O)N1CCC[C@H]1C(=O)N[C@@H](Cc1ccc(O)cc1)C(=O)N[C@@H](CCCNC(=N)N)C(=O)N[C@@H](CCCNC(N)=O)C(=O)N2) [Example 54],–,6.9,–
cyclo(YR[Cit]ERG[dP]RRW[Dab]Y[Cit]K[dP]P) (lactam 4-11; SMILES N=C(N)NCCC[C@@H]1NC(=O)[C@@H]2CCC(=O)NCC[C@H](NC(=O)[C@H](Cc3c[nH]c4ccccc34)NC(=O)[C@H](CCCNC(=N)N)NC(=O)[C@H](CCCNC(=N)N)NC(=O)[C@H]3CCCN3C(=O)CNC1=O)C(=O)N[C@@H](Cc1ccc(O)cc1)C(=O)N[C@@H](CCCNC(N)=O)C(=O)N[C@@H](CCCCN)C(=O)N1CCC[C@@H]1C(=O)N1CCC[C@H]1C(=O)N[C@@H](Cc1ccc(O)cc1)C(=O)N[C@@H](CCCNC(=N)N)C(=O)N[C@@H](CCCNC(N)=O)C(=O)N2) [Example 153],–,21.9,–
cyclo(YR[Cit]VR[Cit]PRR[2Nal]FY[Cit]K[dP]P) (SMILES CC(C)[C@@H]1NC(=O)[C@H](CCCNC(N)=O)NC(=O)[C@H](CCCNC(=N)N)NC(=O)[C@H](Cc2ccc(O)cc2)NC(=O)[C@@H]2CCCN2C(=O)[C@H]2CCCN2C(=O)[C@H](CCCCN)NC(=O)[C@H](CCCNC(N)=O)NC(=O)[C@H](Cc2ccc(O)cc2)NC(=O)[C@H](Cc2ccccc2)NC(=O)[C@H](Cc2ccc3ccccc3c2)NC(=O)[C@H](CCCNC(=N)N)NC(=O)[C@H](CCCNC(=N)N)NC(=O)[C@@H]2CCCN2C(=O)[C@H](CCCNC(N)=O)NC(=O)[C@H](CCCNC(=N)N)NC1=O) [Example 31],1470,–,–
cyclo(YR[Cit][Dab]RG[dP]RRWEY[Cit]K[dP]P) (lactam 4-11; SMILES N=C(N)NCCC[C@@H]1NC(=O)[C@@H]2CCNC(=O)CC[C@H](NC(=O)[C@H](Cc3c[nH]c4ccccc34)NC(=O)[C@H](CCCNC(=N)N)NC(=O)[C@H](CCCNC(=N)N)NC(=O)[C@H]3CCCN3C(=O)CNC1=O)C(=O)N[C@@H](Cc1ccc(O)cc1)C(=O)N[C@@H](CCCNC(N)=O)C(=O)N[C@@H](CCCCN)C(=O)N1CCC[C@@H]1C(=O)N1CCC[C@H]1C(=O)N[C@@H](Cc1ccc(O)cc1)C(=O)N[C@@H](CCCNC(=N)N)C(=O)N[C@@H](CCCNC(N)=O)C(=O)N2) [Example 152],–,4.2,–
cyclo(YR[Cit]FRG[dP]RR[2Nal]FY[Cit]K[dP]P) (SMILES N=C(N)NCCC[C@@H]1NC(=O)[C@H](Cc2ccccc2)NC(=O)[C@H](CCCNC(N)=O)NC(=O)[C@H](CCCNC(=N)N)NC(=O)[C@H](Cc2ccc(O)cc2)NC(=O)[C@@H]2CCCN2C(=O)[C@H]2CCCN2C(=O)[C@H](CCCCN)NC(=O)[C@H](CCCNC(N)=O)NC(=O)[C@H](Cc2ccc(O)cc2)NC(=O)[C@H](Cc2ccccc2)NC(=O)[C@H](Cc2ccc3ccccc3c2)NC(=O)[C@H](CCCNC(=N)N)NC(=O)[C@H](CCCNC(=N)N)NC(=O)[C@H]2CCCN2C(=O)CNC1=O) [Example 38],720,–,–
cyclo([Pip′]RYCYQK[dP]PYR[Cit]CRG[dP]) (disulfide 4-13) [Example 150],–,1.4,–
cyclo(YR[Cit]CRVGRR[2Nal]CY[Cit]K[dP]P) (disulfide 4-11; SMILES CC(C)[C@@H]1NC(=O)[C@H](CCCNC(=N)N)NC(=O)[C@@H]2CSSC[C@H](NC(=O)[C@H](Cc3ccc4ccccc4c3)NC(=O)[C@H](CCCNC(=N)N)NC(=O)[C@H](CCCNC(=N)N)NC(=O)CNC1=O)C(=O)N[C@@H](Cc1ccc(O)cc1)C(=O)N[C@@H](CCCNC(N)=O)C(=O)N[C@@H](CCCCN)C(=O)N1CCC[C@@H]1C(=O)N1CCC[C@H]1C(=O)N[C@@H](Cc1ccc(O)cc1)C(=O)N[C@@H](CCCNC(=N)N)C(=O)N[C@@H](CCCNC(N)=O)C(=O)N2) [Example 53],57.8,–,–
cyclo(YR[Cit]CRG[dP]RRYCYQK[dQ]P) (disulfide 4-11; SMILES N=C(N)NCCC[C@@H]1NC(=O)[C@@H]2CSSC[C@H](NC(=O)[C@H](Cc3ccc(O)cc3)NC(=O)[C@H](CCCNC(=N)N)NC(=O)[C@H](CCCNC(=N)N)NC(=O)[C@H]3CCCN3C(=O)CNC1=O)C(=O)N[C@@H](Cc1ccc(O)cc1)C(=O)N[C@@H](CCC(N)=O)C(=O)N[C@@H](CCCCN)C(=O)N[C@H](CCC(N)=O)C(=O)N1CCC[C@H]1C(=O)N[C@@H](Cc1ccc(O)cc1)C(=O)N[C@@H](CCCNC(=N)N)C(=O)N[C@@H](CCCNC(N)=O)C(=O)N2) [Example 149],–,1,–
"cyclo(RRWCYRKCYKGYCYRKCRG[dP]) (disulfide 8-13, 4-17) [Example 160]",–,0.38,–
RRWCYQKGYXPYGYRXCRGP (D-Pro at P10; Cit at P16; disulfide Cys P4-Cys P17; backbone-cyclic via template Gly-LPro) [Example 158],–,250,–
